From PMC6534634, “Understanding xylose isomerase from Burkholderia cenocepacia: insights into structure and functionality for ethanol production” (AMB Express, 2019)

T1: XylABc (XylA, xylose isomerase from Burkholderia cenocepacia) (Burkholderia cenocepacia, UniProt B4ENA5)
T1 construct: full-length, synthetic gene in pTrcHis-B, His6 fusion (tag apparently kept), E. coli TOP10, Ni resin + Superdex 200; homotetramer ca. 208 kDa
T1 sequence (B4ENA5 1-440): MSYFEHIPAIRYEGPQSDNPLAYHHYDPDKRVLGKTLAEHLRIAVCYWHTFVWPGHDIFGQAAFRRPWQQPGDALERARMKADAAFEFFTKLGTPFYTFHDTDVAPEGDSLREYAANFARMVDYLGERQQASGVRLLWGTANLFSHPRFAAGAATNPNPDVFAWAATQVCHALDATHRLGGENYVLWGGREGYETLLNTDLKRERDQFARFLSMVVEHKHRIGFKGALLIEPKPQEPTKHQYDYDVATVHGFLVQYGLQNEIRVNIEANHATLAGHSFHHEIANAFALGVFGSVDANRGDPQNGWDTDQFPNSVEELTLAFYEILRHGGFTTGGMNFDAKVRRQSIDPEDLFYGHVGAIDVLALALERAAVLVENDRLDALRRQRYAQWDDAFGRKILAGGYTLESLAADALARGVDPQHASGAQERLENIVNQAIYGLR


Key:
[1] = target: T1, XylABc (XylA, xylose isomerase from Burkholderia cenocepacia); experiment: sorbitol dehydrogenase-coupled NADH oxidation, […] nm; assay type: biochemical
[2] = target: the molecule itself; experiment: native gel or EMSA; non-denaturing 4-20% gradient PAGE of the pooled Superdex 200 peak of His6-XylA, SDS-free sample and running buffers, standards 10-250 kDa; band identified by LC-MS/MS; tetramer
[3] = target: the molecule itself; experiment: SDS-PAGE (SDS-resistant oligomer); SDS-PAGE (5% stacking, 12% resolving) after size exclusion; loading dye with 8 M urea, 4% SDS, 100 mM beta-mercaptoethanol; bands identified by LC-MS/MS; dimer beside monomer

Molecule	IC50 [1] [mM]	stoichiometry N [2]	stoichiometry N [3]
OC[C@@H](O)[C@H](O)[C@@H](O)CO [xylitol]	3.75		
Xylose isomerase from Burkholderia cenocepacia (His6-XylA fusion protein) (enzyme, Burkholderia cenocepacia J2315, UniProt B4ENA5 1-440, looked up, Xylose isomerase XylA of Burkholderia cenocepacia J2315, full-length gene made as synthetic DNA, cloned HindIII/BglII into pTrcHis-B; The fusion has a printed theoretical mass of 53,598.67 Da; also called XylABc; XI; source: E. coli TOP10, purified (Ni2+ resin, Superdex 200)) MSYFEHIPAIRYEGPQSDNPLAYHHYDPDKRVLGKTLAEHLRIAVCYWHTFVWPGHDIFGQAAFRRPWQQPGDALERARMKADAAFEFFTKLGTPFYTFHDTDVAPEGDSLREYAANFARMVDYLGERQQASGVRLLWGTANLFSHPRFAAGAATNPNPDVFAWAATQVCHALDATHRLGGENYVLWGGREGYETLLNTDLKRERDQFARFLSMVVEHKHRIGFKGALLIEPKPQEPTKHQYDYDVATVHGFLVQYGLQNEIRVNIEANHATLAGHSFHHEIANAFALGVFGSVDANRGDPQNGWDTDQFPNSVEELTLAFYEILRHGGFTTGGMNFDAKVRRQSIDPEDLFYGHVGAIDVLALALERAAVLVENDRLDALRRQRYAQWDDAFGRKILAGGYTLESLAADALARGVDPQHASGAQERLENIVNQAIYGLR		4	2
